Measured values taken from PMC3540817, “Transfer of a Redox-Signal through the Cytosol by Redox-Dependent Microcompartmentation of Glycolytic Enzymes at Mitochondria and Actin Cytoskeleton” (Frontiers in Plant Science, 2012).
Blank lines part the entries; values can stand above or below the binder they belong to.

Columns and labels:
[1] = target: the molecule itself; assay: far-Western, overlay or dot blot; 2 μg of each protein spotted on nitrocellulose, overlaid with 100 μg/ml aldolase with 0.1 mM GSNO, 5 mM GSSG, 1 mM diamide + 1 mM GSH or 0.5 mM H2O2 + 0.5 mM GSH, 1 h room temperature; glutaraldehyde cross-linking; anti-aldolase antibody
[2] = target: T1, recombinant GAPDH GapC1 (At3g04120) (A. thaliana, UniProt P25858 1-338); assay: far-Western, overlay or dot blot; GapC and BSA spotted on nitrocellulose, overlaid with VDAC3 in liposomes, without DTT (oxidized GapC); anti-VDAC1 serum, ECL; settings: both partners purified
T1 construct: cytosolic NAD-dependent glyceraldehyde-3-phosphate dehydrogenase GapC1, A. thaliana, At3g04120; Redox reagents (diamide + GSH, GSSG, GSNO, H2O2 + GSH, DTT) were added to the mixtures; the redox state is told by the assay; source: recombinant, purified
T1 sequence (P25858 whole entry): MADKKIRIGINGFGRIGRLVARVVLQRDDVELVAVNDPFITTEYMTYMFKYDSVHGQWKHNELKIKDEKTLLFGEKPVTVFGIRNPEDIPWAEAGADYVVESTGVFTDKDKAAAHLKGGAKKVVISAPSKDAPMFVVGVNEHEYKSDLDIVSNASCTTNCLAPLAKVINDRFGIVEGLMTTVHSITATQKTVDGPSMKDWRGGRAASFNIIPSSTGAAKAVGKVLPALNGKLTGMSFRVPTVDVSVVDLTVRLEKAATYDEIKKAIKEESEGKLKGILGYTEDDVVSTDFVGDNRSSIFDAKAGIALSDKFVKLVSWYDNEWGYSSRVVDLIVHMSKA

B1: recombinant cytosolic fructose 1,6-bisphosphate aldolase (FBA6, At2g36460) (enzyme, A. thaliana, UniProt Q9SJQ9 1-358, looked up)
chain: MSSFTSKFADELIANAAYIGTPGKGILAADESTGTIGKRLASINVENVESNRRALRELLFTTPGALPCLSGVILFEETLYQKSSDGTPFVDMLKSAGVLPGIKVDKGTVELAGTNGETTTQGLDGLGDRCKKYYEAGARFAKWRAVLKIGVNEPSQLAIHENAYGLARYAVICQENGLVPIVEPEILVDGSHDIQKCAAVTERVLAACYKALSDHHVLLEGTLLKPNMVTPGSESAKVAPEVIAEHTVRALQRTVPAAVPAIVFLSGGQSEEEATRNLNAMNQLKTKKPWSLSFSFGRALQQSTLKTWGGKEENVKKAQEAFLVRCKANSEATLGAYKGDAKLGEGAAESLHVKDYKY
notes: cytosolic fructose 1,6-bisphosphate aldolase FBA6, A. thaliana, At2g36460; Redox reagents were added to the mixtures; no modified residues are named; the redox state is told by the assay; source: recombinant, purified
binding result [1]: binds

binding result [2]: binds
B2: VDAC3 (At5g15090) reconstituted into liposomes (natural protein, A. thaliana, UniProt Q9SMX3 1-274, looked up)
chain: MVKGPGLYTEIGKKARDLLYRDYQGDQKFSVTTYSSTGVAITTTGTNKGSLFLGDVATQVKNNNFTADVKVSTDSSLLTTLTFDEPAPGLKVIVQAKLPDHKSGKAEVQYFHDYAGISTSVGFTATPIVNFSGVVGTNGLSLGTDVAYNTESGNFKHFNAGFNFTKDDLTASLILNDKGEKLNASYYQIVSPSTVVGAEISHNFTTKENAITVGTQHALDPLTTVKARVNNAGVANALIQHEWRPKSFFTVSGEVDSKAIDKSAKVGIALALKP
notes: voltage-dependent anion channel VDAC3, A. thaliana, At5g15090; also called VDAC3 in liposomes; porin; source: cell-free system (RTS 100 Wheat Germ CECF), separated from the reaction mix via reconstitution into liposomes
